Reference: paper PMC5646243

Tested on: TbRpf2 (Trypanosoma brucei (427?))
Assay: filter binding
Conditions: no Rrs1; 1 mM EDTA; error presumably SEM, 3 replicates; 10 mM Tris pH 7.4, 1 mM EDTA, 100 mM NaCl, 100 ug/ml BSA, 30 min, room temperature; RNA <0.5 nM, protein 0-250 nM

In the case of T. brucei 5S rRNA, the Kd is reported as 0.026 µM.
